Several values for one entry are separate records, joined by “and”; a condition that tells them apart may be missing. Equal values may be shown once.
Biological target: HA-tagged MnPV L1_(SHORT), expressed in Mastomys-derived fibroblasts (Mastomys natalensis papillomavirus (MnPV))
Experiment: SDS-PAGE and western blot of high-MW (multimer) bands; lysates of transfected MaFi132 cells in 1.25x Laemmli buffer (2.5% SDS, 2.5% beta-mercaptoethanol), 95 C 5 min; 8% SDS-PAGE; detected with mAb 2D11, Mastomys serum mix and anti-HA

HA-tagged MnPV L1_(SHORT), expressed in Mastomys-derived fibroblasts (natural protein)
stoichiometry N: 2 and 3

— PMC7402679
